The target of assay [1] is Mono-nucleosomes from mouse embryonic stem cells (ESCs) (mouse) (UniProt P68433). In words: single-molecule TIRF time-lapse imaging, images every 15 minutes.
The target in assay [2] is Recombinant unmodified nucleosomes. In words: single-molecule TIRF time-lapse imaging, summed binding events.

In turn, “Tri-Methyl-Histone H3 (Lys27) (C36B11) Rabbit mAb (Alexa Fluor 647 Conjugate) #12158 (antibody)” yielded a time to equilibrium of binding and dissociation in assay [1] of 45 min. On to “Tri-Methyl-Histone H3 (Lys4) (C42D8) Rabbit mAb (Alexa Fluor 555 Conjugate) #11960 (antibody)”, for which the time to equilibrium of binding and dissociation in assay [1] came out at 75 min. On to “Acetyl-Histone H3 (Lys9) (C5B11) Rabbit mAb (Alexa Fluor 647 Conjugate) #4484 (antibody)”, for which, in assay [2], the percent of nucleosomes scored (bound by antibody) was 0.1%.

Values taken from patent publication US20190284603A1.
